Results from patent US20220363757A1.

Legend:
Assay in all cases: SPR, Fab over captured mutant LAG-3-Fc
[1] = target: human LAG-3 domain 1-2 Fc fusion, point mutation #9 D52A (human) (UniProt P18627)
[2] = target: human LAG-3 domain 1-2 Fc fusion, point mutation #63 D123A (human) (UniProt P18627)
[3] = target: human LAG-3 domain 1-2 Fc fusion, point mutation #14 T62A (human) (UniProt P18627)
[4] = target: human LAG-3 domain 1-2 Fc fusion, point mutation #19 D68A (human) (UniProt P18627)
[5] = target: human LAG-3 domain 1-2 Fc fusion, point mutation #6 T47A (human) (UniProt P18627)
[6] = target: human LAG-3 domain 1-2 Fc fusion, point mutation #31 P84A (human) (UniProt P18627)
Sequence of human LAG-3 domain 1-2 Fc fusion, point mutation #31 P84A (human) (P18627 23-266 P84A): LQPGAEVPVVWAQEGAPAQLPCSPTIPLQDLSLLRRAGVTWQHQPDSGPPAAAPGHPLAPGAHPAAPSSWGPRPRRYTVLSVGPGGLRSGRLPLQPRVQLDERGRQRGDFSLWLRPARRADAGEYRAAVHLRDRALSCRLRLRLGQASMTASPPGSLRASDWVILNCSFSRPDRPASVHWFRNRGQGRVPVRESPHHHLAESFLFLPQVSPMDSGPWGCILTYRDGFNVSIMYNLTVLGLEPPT

[7] = target: human LAG-3 domain 1-2 Fc fusion, point mutation #24 G77A (human) (UniProt P18627)
[8] = target: human LAG-3 domain 1-2 Fc fusion, point mutation #41 P94A (human) (UniProt P18627)
[9] = target: human LAG-3 domain 1-2 Fc fusion, point mutation #53 L109A (human) (UniProt P18627)
[10] = target: human LAG-3 domain 1-2 Fc fusion, chimeric construct #1 (mutated region AA 23-30) (human) (UniProt P18627)
[11] = target: human LAG-3 domain 1-2 Fc fusion, point mutation #43 P96A (human) (UniProt P18627)
Sequence of human LAG-3 domain 1-2 Fc fusion, point mutation #43 P96A (human) (P18627 23-266 P96A): as the sequence (P18627 23-266 P84A) above, with A62P, P74A counted along it

[12] = target: human LAG-3 domain 1-2 Fc fusion, chimeric construct #21 (mutated region AA 128-137) (human) (UniProt P18627)
[13] = target: human LAG-3 domain 1-2 Fc fusion, point mutation #2 Q41A (human) (UniProt P18627)
Sequence of human LAG-3 domain 1-2 Fc fusion, point mutation #2 Q41A (human) (P18627 23-266 Q41A): as the sequence (P18627 23-266 P84A) above, with Q19A, A62P counted along it

[14] = target: human LAG-3 domain 1-2 Fc fusion, point mutation #78 R154A (human) (UniProt P18627)
Sequence of human LAG-3 domain 1-2 Fc fusion, point mutation #78 R154A (human) (P18627 23-266 R154A): as the sequence (P18627 23-266 P84A) above, with A62P, R132A counted along it

[15] = target: human LAG-3 domain 1-2 Fc fusion, chimeric construct #26 (mutated region AA 157-161) (human) (UniProt P18627)
Sequence of human LAG-3 domain 1-2 Fc fusion, chimeric construct #26 (mutated region AA 157-161) (human) (P18627 other isoform, or with tags, fused parts or gaps mutant): as the sequence (P18627 23-266 P84A) above, with A62P, A135D, L136F, R139S counted along it

[16] = target: human LAG-3 domain 1-2 Fc fusion, point mutation #76 D143A (human) (UniProt P18627)
[17] = target: human LAG-3 domain 1-2 Fc fusion, point mutation #42 R95A (human) (UniProt P18627)
[18] = target: human LAG-3 domain 1-2 Fc fusion, point mutation #72 S133A (human) (UniProt P18627)
Sequence of human LAG-3 domain 1-2 Fc fusion, point mutation #72 S133A (human) (P18627 23-266 S133A): as the sequence (P18627 23-266 P84A) above, with A62P, S111A counted along it

[19] = target: human LAG-3 domain 1-2 Fc fusion, point mutation #11 L56A (human) (UniProt P18627)
[20] = target: human LAG-3 domain 1-2 Fc fusion, point mutation #32 H85A (human) (UniProt P18627)
[21] = target: human LAG-3 domain 1-2 Fc fusion, point mutation #12 R57A (human) (UniProt P18627)
Sequence of human LAG-3 domain 1-2 Fc fusion, point mutation #12 R57A (human) (P18627 23-266 R57A): as the sequence (P18627 23-266 P84A) above, with R35A, A62P counted along it

[22] = target: human LAG-3 domain 1-2 Fc fusion, chimeric construct #20 (mutated region AA 123-131) (human) (UniProt P18627)
[23] = target: human LAG-3 domain 1-2 Fc fusion, point mutation #56 G112A (human) (UniProt P18627)
Sequence of human LAG-3 domain 1-2 Fc fusion, point mutation #56 G112A (human) (P18627 23-266 G112A): as the sequence (P18627 23-266 P84A) above, with A62P, G90A counted along it

[24] = target: human LAG-3 domain 1-2 Fc fusion, point mutation #3 P43A (human) (UniProt P18627)
Sequence of human LAG-3 domain 1-2 Fc fusion, point mutation #3 P43A (human) (P18627 23-266 P43A): as the sequence (P18627 23-266 P84A) above, with P21A, A62P counted along it

[25] = target: human LAG-3 domain 1-2 Fc fusion, point mutation #59 Q117A (human) (UniProt P18627)
Sequence of human LAG-3 domain 1-2 Fc fusion, point mutation #59 Q117A (human) (P18627 23-266 Q117A): as the sequence (P18627 23-266 P84A) above, with A62P, Q95A counted along it

[26] = target: human LAG-3 domain 1-2 Fc fusion, point mutation #13 R58A (human) (UniProt P18627)
[27] = target: human LAG-3 domain 1-2 Fc fusion, point mutation #48 V101A (human) (UniProt P18627)
Sequence of human LAG-3 domain 1-2 Fc fusion, point mutation #48 V101A (human) (P18627 23-266 V101A): as the sequence (P18627 23-266 P84A) above, with A62P, V79A counted along it

[28] = target: human LAG-3 domain 1-2 Fc fusion, point mutation #61 R119A (human) (UniProt P18627)
Sequence of human LAG-3 domain 1-2 Fc fusion, point mutation #61 R119A (human) (P18627 23-266 R119A): as the sequence (P18627 23-266 P84A) above, with A62P, R97A counted along it

[29] = target: human LAG-3 domain 1-2 Fc fusion, point mutation #40 G93A (human) (UniProt P18627)
Sequence of human LAG-3 domain 1-2 Fc fusion, point mutation #40 G93A (human) (P18627 23-266 G93A): as the sequence (P18627 23-266 P84A) above, with A62P, G71A counted along it

[30] = target: human LAG-3 domain 1-2 Fc fusion, chimeric construct #19 (mutated region AA 118-127) (human) (UniProt P18627)
[31] = target: human LAG-3 domain 1-2 Fc fusion, chimeric construct #7 (mutated region AA 53-60) (human) (UniProt P18627)
Sequence of human LAG-3 domain 1-2 Fc fusion, chimeric construct #7 (mutated region AA 53-60) (human) (P18627 other isoform, or with tags, fused parts or gaps mutant): as the sequence (P18627 23-266 P84A) above, with L31P, S32N, L33F, A37G, G38W, A62P counted along it

[32] = target: human LAG-3 domain 1-2 Fc fusion, point mutation #17 Q66A (human) (UniProt P18627)
Sequence of human LAG-3 domain 1-2 Fc fusion, point mutation #17 Q66A (human) (P18627 23-266 Q66A): as the sequence (P18627 23-266 P84A) above, with Q44A, A62P counted along it

[33] = target: human LAG-3 domain 1-2 Fc fusion, chimeric construct #3 (mutated region AA 40-41) (human) (UniProt P18627)
Sequence of human LAG-3 domain 1-2 Fc fusion, chimeric construct #3 (mutated region AA 40-41) (human) (P18627 other isoform, or with tags, fused parts or gaps mutant): as the sequence (P18627 23-266 P84A) above, with A18V, Q19H, A62P counted along it

Sequence of human LAG-3 domain 1-2 Fc fusion, point mutation #14 T62A (human) (P18627 23-266 T62A): as the sequence (P18627 23-266 P84A) above, with T40A, A62P counted along it
Sequence of human LAG-3 domain 1-2 Fc fusion, point mutation #19 D68A (human) (P18627 23-266 D68A): as the sequence (P18627 23-266 P84A) above, with D46A, A62P counted along it
Sequence of human LAG-3 domain 1-2 Fc fusion, point mutation #63 D123A (human) (P18627 23-266 D123A): as the sequence (P18627 23-266 P84A) above, with A62P, D101A counted along it

Fab fragment of 25F7-Lag3.5 analogue
KD mutant/KD wild type [1]: 0.8 fold
KD mutant/KD wild type [2]: 1 fold
KD mutant/KD wild type [3]: 1.3 fold
KD mutant/KD wild type [4]: 0.9 fold
KD mutant/KD wild type [5]: 0.8 fold
KD mutant/KD wild type [6]: 0.6 fold
KD mutant/KD wild type [7]: 1 fold
KD mutant/KD wild type [8]: 0.8 fold
KD mutant/KD wild type [9]: 0.9 fold
KD mutant/KD wild type [10]: 1.3 fold
KD mutant/KD wild type [11]: 0.7 fold
KD mutant/KD wild type [12]: 1.4 fold
KD mutant/KD wild type [13]: 1 fold
KD mutant/KD wild type [14]: 0.8 fold
KD mutant/KD wild type [15]: 0.9 fold
KD mutant/KD wild type [16]: 1 fold
KD mutant/KD wild type [17]: 1.9 fold
KD mutant/KD wild type [18]: 1.1 fold
KD mutant/KD wild type [19]: 0.9 fold
KD mutant/KD wild type [20]: 14.1 fold
KD mutant/KD wild type [21]: 0.7 fold
KD mutant/KD wild type [22]: 1.3 fold
KD mutant/KD wild type [23]: 0.9 fold
KD mutant/KD wild type [24]: 1.2 fold
KD mutant/KD wild type [25]: 0.8 fold
KD mutant/KD wild type [26]: 0.8 fold
KD mutant/KD wild type [27]: 1 fold
KD mutant/KD wild type [28]: 1.1 fold
KD mutant/KD wild type [29]: 6.2 fold
KD mutant/KD wild type [30]: 0.8 fold
KD mutant/KD wild type [31]: 1.4 fold
KD mutant/KD wild type [32]: 0.9 fold
KD mutant/KD wild type [33]: 1.3 fold
